Measured values published in patent publication US6387638.
Ends that are not written are not given here.

B1: HRG-β1 177-244 F189A, phage-displayed (ligand)
chain: SHLVKCAEKEKTACVNGGECFMVKDLSNPSRYLCKCPNEFTGDRCQNYVMASFYKHLGIEFMEAEELY
B2: HRG-β1 177-244 F216A, phage-displayed (ligand, phage M13)
chain: SHLVKCAEKEKTFCVNGGECFMVKDLSNPSRYLCKCPNEATGDRCQNYVMASFYKHLGIEFMEAEELYGGSGGGSGSGDFDYEKMANANKGAMTENADENALQSDAKGKLDSVATDYGAAIDGFIGDVSGLANGNGATGDFAGSNSQMAQVGDGDNSPLMNNFRQYLPSLPQSVECRPFVFSAGKPYEFSIDCDKINLFRGVFAFLLYVATFMYVASTFANILRNKES
notes: range 247-end
B3: HRG-β1 EGF variant D4, phage-displayed (ligand)
chain: SHLVKCAEKEKTFCVNGGECYRVKTLSNPSRYLCKCPNEFTGDRCQNYVMAS
modifications: not fully specified; cysteine pairing not given here
notes: pHRG8-g3 scaffold; not shown: Display carrier only: the (GGGS)3 linker and the M13 pIII C-terminal fragment from residue 323
B4: HRG8: wild-type HRG-β1 177-228 (HRG-β1 EGF 1-52) fused via (GGGS)3 to pIII 323, phage-displayed (ligand, phage M13)
chain: SHLVKCAEKEKTFCVNGGECFMVKDLSNPSRYLCKCPNEFTGDRCQNYVMASGGGSGGGSGGGSNSQMAQVGDGDNSPLMNNFRQYLPSLPQSVECRPFVFSAGKPYEFSIDCDKINLFRGVFAFLLYVATFMYVFSTFANILRNKES
notes: range 323-end; Monovalent M13 phage display; also called wild-type HRG-β1 EGF-phage

What was measured:
[1] = target: T1, ErbB-3 receptor-Ig fusion (homodimer) (human, UniProt P21860 20-643; P21860 20-636); assay: phage ELISA, soluble ErbB-3-Ig as competitor
[2] = target: T2, ErbB-4 receptor-Ig fusion (homodimer) (human, UniProt Q15303 26-651; Q15303 26-640); assay: phage ELISA, soluble ErbB-4-Ig as competitor
[3] = target: T2, ErbB-4 receptor-Ig fusion (homodimer); assay: phage ELISA, soluble ErbB-4-Ig as competitor; remark: listed apart in the source
[4] = target: T1, ErbB-3 receptor-Ig fusion (homodimer); assay: phage ELISA, soluble ErbB-3-Ig as competitor; remark: listed apart in the source

T1 sequence (P21860 other isoform, or with tags, fused parts or gaps): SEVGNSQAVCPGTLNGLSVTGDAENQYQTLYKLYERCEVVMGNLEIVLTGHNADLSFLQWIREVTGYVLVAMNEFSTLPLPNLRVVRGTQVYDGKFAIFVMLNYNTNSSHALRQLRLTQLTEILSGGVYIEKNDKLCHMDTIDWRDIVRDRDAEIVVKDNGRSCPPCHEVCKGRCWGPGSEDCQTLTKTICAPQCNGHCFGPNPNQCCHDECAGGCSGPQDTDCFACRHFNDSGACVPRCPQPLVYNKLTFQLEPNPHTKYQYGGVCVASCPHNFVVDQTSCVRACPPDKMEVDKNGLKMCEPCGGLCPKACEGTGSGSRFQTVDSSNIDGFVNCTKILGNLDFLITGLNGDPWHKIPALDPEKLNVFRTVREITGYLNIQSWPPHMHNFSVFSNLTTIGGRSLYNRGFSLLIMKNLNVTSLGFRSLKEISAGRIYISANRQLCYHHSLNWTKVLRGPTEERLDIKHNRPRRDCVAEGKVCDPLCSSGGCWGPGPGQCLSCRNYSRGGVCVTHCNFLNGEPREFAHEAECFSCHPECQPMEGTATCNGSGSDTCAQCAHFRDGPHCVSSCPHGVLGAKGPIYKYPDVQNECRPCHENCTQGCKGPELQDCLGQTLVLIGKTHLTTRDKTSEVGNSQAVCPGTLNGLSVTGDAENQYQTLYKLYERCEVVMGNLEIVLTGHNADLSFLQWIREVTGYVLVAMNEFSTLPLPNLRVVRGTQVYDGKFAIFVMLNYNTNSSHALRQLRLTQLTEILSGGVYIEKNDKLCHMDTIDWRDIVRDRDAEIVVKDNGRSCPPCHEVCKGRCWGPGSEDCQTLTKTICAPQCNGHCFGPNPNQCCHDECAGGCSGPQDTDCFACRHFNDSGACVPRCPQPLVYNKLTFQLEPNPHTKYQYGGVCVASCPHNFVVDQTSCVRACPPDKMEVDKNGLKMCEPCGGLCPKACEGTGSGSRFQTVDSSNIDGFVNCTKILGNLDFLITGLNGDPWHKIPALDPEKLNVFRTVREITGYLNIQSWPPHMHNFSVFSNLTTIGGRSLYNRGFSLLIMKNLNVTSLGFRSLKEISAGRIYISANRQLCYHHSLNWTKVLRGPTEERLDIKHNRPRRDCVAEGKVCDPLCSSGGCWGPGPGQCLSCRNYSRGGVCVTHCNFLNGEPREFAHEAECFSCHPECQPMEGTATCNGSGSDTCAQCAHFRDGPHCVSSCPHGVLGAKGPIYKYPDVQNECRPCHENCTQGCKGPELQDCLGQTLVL
T2 sequence (Q15303 other isoform, or with tags, fused parts or gaps): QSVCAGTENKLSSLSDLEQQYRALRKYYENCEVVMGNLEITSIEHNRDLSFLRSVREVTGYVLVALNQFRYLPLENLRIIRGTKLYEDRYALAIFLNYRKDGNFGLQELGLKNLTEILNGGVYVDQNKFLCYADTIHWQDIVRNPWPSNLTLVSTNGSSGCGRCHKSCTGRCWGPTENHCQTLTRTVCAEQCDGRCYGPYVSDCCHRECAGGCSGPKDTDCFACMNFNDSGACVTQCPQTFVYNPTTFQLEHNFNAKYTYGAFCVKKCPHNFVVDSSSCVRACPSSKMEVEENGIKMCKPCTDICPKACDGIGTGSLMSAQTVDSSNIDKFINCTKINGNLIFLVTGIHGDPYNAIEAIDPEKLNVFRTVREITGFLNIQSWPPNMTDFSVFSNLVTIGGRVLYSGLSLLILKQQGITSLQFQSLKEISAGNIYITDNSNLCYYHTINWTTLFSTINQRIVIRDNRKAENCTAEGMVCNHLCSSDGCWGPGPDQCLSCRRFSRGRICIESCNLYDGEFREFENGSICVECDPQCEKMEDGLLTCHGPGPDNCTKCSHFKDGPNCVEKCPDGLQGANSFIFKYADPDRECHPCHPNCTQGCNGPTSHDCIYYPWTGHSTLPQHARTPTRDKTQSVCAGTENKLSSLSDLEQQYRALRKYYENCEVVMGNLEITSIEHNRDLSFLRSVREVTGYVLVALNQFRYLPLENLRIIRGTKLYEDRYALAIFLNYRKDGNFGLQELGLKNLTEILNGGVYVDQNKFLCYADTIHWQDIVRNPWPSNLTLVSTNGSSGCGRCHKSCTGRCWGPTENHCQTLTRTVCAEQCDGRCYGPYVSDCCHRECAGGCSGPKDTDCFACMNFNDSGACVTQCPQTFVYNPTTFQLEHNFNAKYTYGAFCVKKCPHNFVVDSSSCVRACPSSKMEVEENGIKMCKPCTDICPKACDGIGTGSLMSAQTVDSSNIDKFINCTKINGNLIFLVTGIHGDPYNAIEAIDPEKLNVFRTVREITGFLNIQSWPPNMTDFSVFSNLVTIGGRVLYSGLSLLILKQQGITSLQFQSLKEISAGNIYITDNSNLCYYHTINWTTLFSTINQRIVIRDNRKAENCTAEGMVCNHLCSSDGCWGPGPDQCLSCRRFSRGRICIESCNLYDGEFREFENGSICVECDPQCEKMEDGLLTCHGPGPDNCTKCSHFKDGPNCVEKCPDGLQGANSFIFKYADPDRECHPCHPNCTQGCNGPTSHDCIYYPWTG

| Binder | EC50 [1] | EC50 [2] | EC50(wt)/EC50(mut) [3] | EC50(wt)/EC50(mut) [4] |
| --- | --- | --- | --- | --- |
| B1 | 0.892 µM | 0.106 µM |  |  |
| B2 | 0.5 µM |  |  |  |
| B3 |  |  | 5 ratio | 2.9 ratio |
| B4 |  |  | 1 ratio | 1 ratio |
